Laboratory results taken from PMC10576442, “Cullin‐associated and neddylation‐dissociated 1 regulate reprogramming of lipid metabolism through SKP1‐Cullin‐1‐F‐box^FBXO11‐mediated heterogeneous nuclear ribonucleoprotein A2/B1 ubiquitination and promote hepatocellular carcinoma” (Clinical and Translational Medicine, 2023).

Molecular target: T1, HA-FBXO11 fusion protein expressed in E. coli (UniProt Q86XK2 1-927)
T1 construct: FBXO11 with an HA tag, expressed in E. coli; The methods of the GST pull-down speak of total cell lysates, the results of purified proteins from E. coli; source: E. coli, purified
T1 sequence (looked up): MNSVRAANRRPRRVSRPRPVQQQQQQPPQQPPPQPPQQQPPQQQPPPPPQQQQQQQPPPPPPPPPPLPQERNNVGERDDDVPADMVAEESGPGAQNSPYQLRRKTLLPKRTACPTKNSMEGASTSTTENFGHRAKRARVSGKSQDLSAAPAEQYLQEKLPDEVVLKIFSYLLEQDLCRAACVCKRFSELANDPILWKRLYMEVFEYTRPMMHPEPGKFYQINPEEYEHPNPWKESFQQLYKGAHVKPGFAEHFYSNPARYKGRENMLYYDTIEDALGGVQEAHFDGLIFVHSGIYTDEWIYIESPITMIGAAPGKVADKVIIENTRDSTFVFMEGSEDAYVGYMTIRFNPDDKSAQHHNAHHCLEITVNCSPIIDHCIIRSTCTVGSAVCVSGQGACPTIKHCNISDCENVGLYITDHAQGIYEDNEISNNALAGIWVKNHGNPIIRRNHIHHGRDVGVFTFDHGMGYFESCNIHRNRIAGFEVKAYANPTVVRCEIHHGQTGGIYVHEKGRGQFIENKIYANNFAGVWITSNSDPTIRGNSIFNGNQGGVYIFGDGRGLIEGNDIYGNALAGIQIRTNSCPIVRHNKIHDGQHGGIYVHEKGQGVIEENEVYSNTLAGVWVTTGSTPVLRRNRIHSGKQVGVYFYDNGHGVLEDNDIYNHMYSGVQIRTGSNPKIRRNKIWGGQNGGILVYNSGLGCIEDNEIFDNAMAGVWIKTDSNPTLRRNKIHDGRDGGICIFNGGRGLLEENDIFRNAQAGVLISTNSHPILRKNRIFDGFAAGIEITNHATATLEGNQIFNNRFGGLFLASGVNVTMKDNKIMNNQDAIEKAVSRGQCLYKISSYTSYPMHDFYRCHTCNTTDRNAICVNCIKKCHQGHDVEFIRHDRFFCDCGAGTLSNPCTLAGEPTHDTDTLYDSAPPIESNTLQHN
Experiment: pull-down; GST pull-down (Magne GST pull-down system), GST-hnRNPA2B1 immobilised on magnetic beads, overnight at 4 °C, HA-FBXO11 expressed in E. coli, western blot
Settings: both partners purified

B1: GST-hnRNPA2B1 (natural protein, UniProt P22626 1-353, looked up)
chain: MEKTLETVPLERKKREKEQFRKLFIGGLSFETTEESLRNYYEQWGKLTDCVVMRDPASKRSRGFGFVTFSSMAEVDAAMAARPHSIDGRVVEPKRAVAREESGKPGAHVTVKKLFVGGIKEDTEEHHLRDYFEEYGKIDTIEIITDRQSGKKRGFGFVTFDDHDPVDKIVLQKYHTINGHNAEVRKALSRQEMQEVQSSRSGRGGNFGFGDSRGGGGNFGPGPGSNFRGGSDGYGSGRGFGDGYNGYGGGPGGGNFGGSPGYGGGRGGYGGGGPGYGNQGGGYGGGYDNYGGGNYGSGNYNDFGNYNQQPSNYGPMKSGNFGGSRNMGGPYGGGNYGPGGSGGSGGYGGRSRY
notes: hnRNPA2B1 as a GST fusion protein; source: E. coli BL21 (DE3), purified (GST-tag purification resin)
  binding result: binds
